Target: His6-tagged 13C,15N-H1 (human, UniProt P07305 1-194)
Test: NMR titration

Chain of His6-tagged 13C,15N-H1 (P07305 whole entry): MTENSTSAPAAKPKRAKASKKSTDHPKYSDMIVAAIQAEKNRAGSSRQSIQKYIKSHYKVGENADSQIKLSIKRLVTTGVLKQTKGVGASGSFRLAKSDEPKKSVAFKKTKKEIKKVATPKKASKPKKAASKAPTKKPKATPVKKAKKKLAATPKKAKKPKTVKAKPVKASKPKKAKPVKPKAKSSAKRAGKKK

B1: prothymosin α (unlabeled, wildtype) (natural protein, human, UniProt P06454 1-111, looked up)
chain: MSDAAVDTSSEITTKDLKEKKEVVEEAENGRDAPANGNAENEENGEQEADNEVDEEEEEGGEEEEEEEEGDGEEEDGDEDEEAESATGKRAAEDDEDDDVDTKKQKTDEDD
stoichiometry N: 1

Source: publication PMC6264893 (Nature, 2018)
